Reference: CN114456267A

Target: T1, 重组人CD73蛋白 (human) (UniProt P21589)
T1 sequence (looked up): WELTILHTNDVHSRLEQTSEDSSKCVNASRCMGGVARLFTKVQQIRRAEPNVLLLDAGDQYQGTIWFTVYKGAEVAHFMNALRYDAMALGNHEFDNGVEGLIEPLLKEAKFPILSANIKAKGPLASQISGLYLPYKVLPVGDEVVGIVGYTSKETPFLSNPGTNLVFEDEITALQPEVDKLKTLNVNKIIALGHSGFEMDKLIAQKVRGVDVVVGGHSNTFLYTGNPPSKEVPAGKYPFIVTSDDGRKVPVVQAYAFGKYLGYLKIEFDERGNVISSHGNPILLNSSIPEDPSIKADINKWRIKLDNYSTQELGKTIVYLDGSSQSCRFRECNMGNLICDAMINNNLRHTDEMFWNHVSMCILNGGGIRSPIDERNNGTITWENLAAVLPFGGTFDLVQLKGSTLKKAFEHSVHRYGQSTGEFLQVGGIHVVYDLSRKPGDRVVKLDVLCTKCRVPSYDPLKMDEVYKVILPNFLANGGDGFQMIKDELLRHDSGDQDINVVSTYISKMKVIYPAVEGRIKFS
Experiment: ELISA, plate coated with 1 μg/mL recombinant human CD73, anti-human IgG-HRP detection

B1: 抗CD73人源化单克隆抗体5A4 (antibody, part only; not given: Light chain variable region, part only)
VH: SICFEGKPDMNQRDKEDHMRVFMNSWDDWYDVKLWHCIDFERAHRPQHYPIMAQVQLVQSGAEVKKPGASVKVSCKASGYSFTDYNMYWVRQAPGQGLEWMGYIDPYNGDASYAQKFQGRVTMTRDTSTSTVYMELSSLRSEDTAVYYCAKTDYWGQGTTLTVSSCLAKLPCGSHTWVWWQEMIQNAPWCVQPTHDHWAPAGWNHGCCILAHAENIQGAQWFAY
B1 showed a 亲和力 (affinity) of 8.3e-13 mol/L.
